The text below walks through data of patent publication EP3443010B1 (Ose Immunotherapeutics, dated 2024).

The EC50 is the concentration needed to bring the measured effect to its halfway point. By Kd is commonly meant the constant that tells how readily two partners part at equilibrium.

Several values for one entry are separate records, joined by “and”; a condition that tells them apart may be missing. Identical values can stand only once.

Assay [1] addresses T1, recombinant hSIRPa (Sino Biologicals, reference 10975-H08H) (human, UniProt P78324 31-370).
T1 construct: A different catalogue item from m21; also called SIRPa-His (ELISA with the mouse antibodies)
Briefly: ELISA, hSIRPa (Sino 10975-H08H) coated at 0.5 ug/ml, anti-mouse Fc detection.

For assay [2], the target named is T2, Recombinant hSIRPb-His (Antibodies-online, reference ABIN3077231) (human, UniProt Q5TFQ8 30-371).
T2 construct: also called human SIRPb recombinant protein (Blitz); not shown: His tag (histidine tail)
T2 sequence (Q5TFQ8 30-371): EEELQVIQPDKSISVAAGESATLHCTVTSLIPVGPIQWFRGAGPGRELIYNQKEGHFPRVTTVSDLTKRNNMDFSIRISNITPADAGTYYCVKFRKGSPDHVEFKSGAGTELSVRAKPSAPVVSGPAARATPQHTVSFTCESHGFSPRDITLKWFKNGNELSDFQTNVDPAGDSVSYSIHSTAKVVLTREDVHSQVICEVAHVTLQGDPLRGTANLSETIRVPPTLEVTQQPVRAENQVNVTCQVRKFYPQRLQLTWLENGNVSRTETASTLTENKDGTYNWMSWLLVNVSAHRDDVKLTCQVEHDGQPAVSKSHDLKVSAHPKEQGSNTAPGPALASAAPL
Briefly: Blitz (BLI), SIRPb-His on Ni-NTA biosensor, antibody at 20 ug/mL.

The target of assay [3] is T3, Recombinant hSIRPg-His (Sino Biologicals, reference 11828-H08H) (human, UniProt Q9P1W8 29-360).
T3 construct: also called human SIRPg recombinant protein; not shown: His tag (histidine tail)
T3 sequence (Q9P1W8 29-360 limits assumed): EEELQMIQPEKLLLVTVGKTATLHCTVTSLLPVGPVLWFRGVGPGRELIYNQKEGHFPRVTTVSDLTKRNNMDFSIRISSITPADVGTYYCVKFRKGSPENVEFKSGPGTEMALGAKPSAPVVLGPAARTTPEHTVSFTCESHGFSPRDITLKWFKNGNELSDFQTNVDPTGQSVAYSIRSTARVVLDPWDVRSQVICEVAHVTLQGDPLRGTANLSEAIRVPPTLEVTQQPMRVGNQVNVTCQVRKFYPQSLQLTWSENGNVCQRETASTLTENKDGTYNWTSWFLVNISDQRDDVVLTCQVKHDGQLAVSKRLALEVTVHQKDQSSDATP
Briefly: Blitz (BLI), SIRPg-His on Ni-NTA biosensor, antibody at 20 ug/mL.

In assay [4] the target is T4, SIRPg on peripheral human CD3+ T cells (human, UniProt Q9P1W8 29-387).
T4 construct: whole, on cells; also called T cells that are known to express SIRPγ; human T cells
T4 sequence (Q9P1W8 29-387): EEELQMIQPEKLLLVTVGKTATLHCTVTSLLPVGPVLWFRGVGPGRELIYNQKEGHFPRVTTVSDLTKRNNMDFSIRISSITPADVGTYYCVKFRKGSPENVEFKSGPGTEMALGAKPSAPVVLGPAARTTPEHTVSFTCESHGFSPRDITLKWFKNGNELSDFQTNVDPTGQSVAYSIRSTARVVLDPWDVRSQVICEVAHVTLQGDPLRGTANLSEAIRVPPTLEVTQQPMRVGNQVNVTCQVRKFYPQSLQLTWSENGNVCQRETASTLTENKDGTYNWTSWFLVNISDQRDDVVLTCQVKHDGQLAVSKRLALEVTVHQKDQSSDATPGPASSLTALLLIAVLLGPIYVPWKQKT
Briefly: flow cytometry on human CD3+ T cells, percent positive cells.

T1 sequence (P78324 other isoform, or with tags, fused parts or gaps H08H H08H): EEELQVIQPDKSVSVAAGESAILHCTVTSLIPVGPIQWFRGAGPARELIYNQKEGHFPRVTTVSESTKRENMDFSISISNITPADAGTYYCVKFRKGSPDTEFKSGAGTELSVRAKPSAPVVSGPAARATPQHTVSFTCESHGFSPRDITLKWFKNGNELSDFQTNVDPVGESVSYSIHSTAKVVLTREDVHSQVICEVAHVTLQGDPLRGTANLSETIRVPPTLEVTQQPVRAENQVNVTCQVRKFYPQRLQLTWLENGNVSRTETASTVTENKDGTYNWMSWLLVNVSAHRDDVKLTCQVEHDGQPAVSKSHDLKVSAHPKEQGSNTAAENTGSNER

B1: mouse antibody 18D5 (antibody, mouse IgG2b, kappa)
heavy: QVQLQQPGAELVRPGSSVKLSCKASGYTFTSYWVHWVKQRPIQGLEWIGNIDPSDSDTHYNQKFKDKASLTVDKSSSTAYMQLSSLTFEDSAVYYCVRGGTGTMAWFAYWGQGTLVTVSAAKTTPPSVYPLAPGCGDTTGSSVTLGCLVKGYFPESVTVTWNSGSLSSSVHTFPALLQSGLYTMSSSVTVPSSTWPSQTVTCSVAHPASSTTVDKKLEPSGPISTINPCPPCKECHKCPAPNLEGGPSVFIFPPNIKDVLMISLTPKVTCVVVDVSEDDPDVQISWFVNNVEVHTAQTQTHREDYNSTIRVVSTLPIQHQDWMSGKEFKCKVNNKDLPSPIERTISKIKGLVRAPQVYILPPPAEQLSRKDVSLTCLVVGFNPGDISVEWTSNGHTEENYKDTAPVLDSDGSYFIYSKLNMKTSKWEKTDSFSCNVRHEGLKNYYLKKTISRSPGK
light: DVVMTQTPLSLPVSLGDQASISCRSSQSLVHSYGNTYLYWYLQKPGQSPKLLIYRVSNRFSGVPDRFSGSGSGTDFTLKISRVEAEDLGVYFCFQGTHVPYTFGSGTKLEIKRADAAPTVSIFPPSSEQLTSGGASVVCFLNNFYPKDINVKWKIDGSERQNGVLNSWTDQDSKDSTYSMSSTLTLTKDEYERHNSYTCEATHKTSTSPIVKSFNRNEC
notes: also called m18D5; m18D5 clone
On to B1, for which the 50% effective concentration (EC50) in assay [1] is 0.06 nM and 0.009 µg/mL.

B2: HFLA (antibody, human IgG4 S228P, kappa, V domains shown)
VH: EVQLVQSGAEVKKPGESLRISCKASGYSFTSYWVHWVRQMPGKGLEWMGNIDPSDSDTHYSPSFQGHVTLSVDKSISTAYLQLSSLKASDTAMYYCVRGGTGTMAYFAYWGQGTLVTVSS
VL: DVVMTQSPLSLPVTLGQPASISCRSSQSLVHSYGNTYLYWYQQRPGQSPRLLIYRVSNRFSGVPDRFSGSGSGTDFTLKISRVEAEDVGVYFCFQGTHVPYTFGGGTKVEIKR
notes: also called humanized 18D5 variant HFLA
Regarding B2, in assay [2], the binding result is listed as “binds”.

B3: HFLB (antibody, human IgG4 S228P, kappa, V domains shown)
VH: EVQLVQSGAEVKKPGESLRISCKASGYSFTSYWVHWVRQMPGKGLEWMGNIDPSDSDTHYSPSFQGHVTLSVDKSISTAYLQLSSLKASDTAMYYCVRGGTGTMAYFAYWGQGTLVTVSS
VL: DVVMTQSPLSLPVTLGQPASISCRSSQSLVHSYGNTYLYWFQQRPGQSPRLLIYRVSNRFSGVPDRFSGSGSGTDFTLKISRVEAEDVGVYYCFQGTHVPYTFGGGTKVEIKR
notes: also called humanized 18D5 variant HFLB
With B3, the Kd in assay [3] was 104 nM. In addition, the binding result in assay [2] is on record as “binds”.

B4: HEFLB (antibody, human IgG4 S228P, kappa, V domains shown)
VH: EVQLVQSGAEVKKPGESLRISCKASGYSFTSYWVHWVRQMPGKGLEWMGNIDPSDSDTHYSPSFQGHVTLSVDKSISTAYLQLSSLKASDTAMYYCVRGGTGTLAYFAYWGQGTLVTVSS
VL: DVVMTQSPLSLPVTLGQPASISCRSSQSLVHSYGNTYLYWFQQRPGQSPRLLIYRVSNRFSGVPDRFSGSGSGTDFTLKISRVEAEDVGVYYCFQGTHVPYTFGGGTKVEIKR
notes: also called humanized 18D5 variant HEFLB; anti-SIRPa HEFLB
For the molecule B4, the binding result in assay [2] was “binds”.

B5: HEFLA (antibody, human IgG4 S228P, kappa, V domains shown)
VH: EVQLVQSGAEVKKPGESLRISCKASGYSFTSYWVHWVRQMPGKGLEWMGNIDPSDSDTHYSPSFQGHVTLSVDKSISTAYLQLSSLKASDTAMYYCVRGGTGTLAYFAYWGQGTLVTVSS
VL: DVVMTQSPLSLPVTLGQPASISCRSSQSLVHSYGNTYLYWYQQRPGQSPRLLIYRVSNRFSGVPDRFSGSGSGTDFTLKISRVEAEDVGVYFCFQGTHVPYTFGGGTKVEIKR
notes: also called humanized 18D5 variant HEFLA
Consider B5, for which, in assay [2], the binding result was “binds”.

B6: chimeric mouse/human 18D5 antibody (antibody, human IgG4 S228P, kappa)
heavy: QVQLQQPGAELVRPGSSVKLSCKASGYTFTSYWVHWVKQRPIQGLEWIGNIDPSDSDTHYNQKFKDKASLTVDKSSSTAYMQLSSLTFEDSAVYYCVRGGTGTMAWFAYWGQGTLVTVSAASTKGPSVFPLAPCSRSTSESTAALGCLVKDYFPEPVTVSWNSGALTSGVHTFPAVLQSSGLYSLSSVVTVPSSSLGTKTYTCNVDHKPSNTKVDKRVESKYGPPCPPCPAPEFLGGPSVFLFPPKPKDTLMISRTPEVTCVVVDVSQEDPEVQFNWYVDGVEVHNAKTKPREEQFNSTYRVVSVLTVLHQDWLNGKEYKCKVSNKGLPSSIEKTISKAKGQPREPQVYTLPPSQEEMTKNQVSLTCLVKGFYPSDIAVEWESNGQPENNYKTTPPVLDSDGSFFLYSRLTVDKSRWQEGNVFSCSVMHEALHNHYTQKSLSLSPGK
light: DVVMTQTPLSLPVSLGDQASISCRSSQSLVHSYGNTYLYWYLQKPGQSPKLLIYRVSNRFSGVPDRFSGSGSGTDFTLKISRVEAEDLGVYFCFQGTHVPYTFGSGTKLEIKRTVAAPSVFIFPPSDEQLKSGTASVVCLLNNFYPREAKVQWKVDNALQSGNSQESVTEQDSKDSTYSLSSTLTLSKADYEKHKVYACEVTHQGLSSPVTKSFNRGEC
notes: also called chimeric 18D5; the chimeric antibody
With B6, the binding result is “no binding (tested: 10 micrograms/ml)” in assay [4] and “binds” in assay [2].
